# From publication PMC3429349 (Science (New York, N.Y.), 2009)
# Molecular target: the molecule itself
protein,measurement,value
"HSF1 K80Q (natural protein, human, UniProt Q00613 1-529, looked up) MDLPVGPGAAGPSNVPAFLTKLWTLVSDPDTDALICWSPSGNSFHVFDQGQFAKEVLPKYFKHNNMASFVRQLNMYGFRQVVHIEQGGLVKPERDDTEFQHPCFLRGQEQLLENIKRKVTSVSTLKSEDIKIRQDSVTKLLTDVQLMKGKQECMDSKLLAMKHENEALWREVASLRQKHAQQQKVVNKLIQFLISLVQSNRILGVKRKIPLMLNDSGSAHSMPKYSRQFSLEHVHGSGPYSAPSPAYSSSSLYAPDAVASSGPIISDITELAPASPMASPGGSIDERPLSSSPLVRVKEEPPSPPQSPRVEEASPGRPSSVDTLLSPTALIDSILRESEPAPASVTALTDARGHTDTEGRPPSPPPTSTPEKCLSVACLDKNELSDHLDAMDSNLDNLQTMLSSHGFSVDTSALLDLFSPSVTVPDMSLPDLDSSLASIQELLSPQEPPRPPEAENSSPDSGKQLVHYTAQPLFLLDPGSVDTGSNDLPVLFELGEGSYFSEGDGFAEDPTISLLTGSEPPKAKDPTVS",stoichiometry N,3
